Publication doi:10.64898/2026.08.16.745104, “C. elegans Dicer stacks with the RIG-I-like receptor DRH-1 to cleave dsRNA”

Target: DCR-1;DRH-1;RDE-4 (Caenorhabditis elegans;Caenorhabditis …, UniProt P34529;G5EDI8;G5EBF5 1-1910;1-1037;1-385, ||)
Assay: cryo-EM structure, 3.0 A; 5 mM ATP, 20 C; ADP modelled in DCR-1, DRH-1 and DRH-1*; Mg2+; cleavage-competent state, poised for second cleavage; RDE-4 dsRBM2 density not seen; Cryo-EM; sample buffer not given in material. Lysis/resuspension buffer 25 mM HEPES pH 7.5, 10 mM KOAc, 2 mM Mg(OAc)2, 100 mM KCl, 1 mM TCEP, 5% glycerol; RNA annealed in 50 mM Tris pH 8.0, 20 mM KCl; ATP sample incubated at 20 C
Conditions: protein: recombinant;recombinant;recombinant; (StrepTrap purification); copies: 1;1;1; 2 nt 3' overhangs at both termini

DCR-1;DRH-1;RDE-4, sequence (P34529 whole entry, chain 1 of 3): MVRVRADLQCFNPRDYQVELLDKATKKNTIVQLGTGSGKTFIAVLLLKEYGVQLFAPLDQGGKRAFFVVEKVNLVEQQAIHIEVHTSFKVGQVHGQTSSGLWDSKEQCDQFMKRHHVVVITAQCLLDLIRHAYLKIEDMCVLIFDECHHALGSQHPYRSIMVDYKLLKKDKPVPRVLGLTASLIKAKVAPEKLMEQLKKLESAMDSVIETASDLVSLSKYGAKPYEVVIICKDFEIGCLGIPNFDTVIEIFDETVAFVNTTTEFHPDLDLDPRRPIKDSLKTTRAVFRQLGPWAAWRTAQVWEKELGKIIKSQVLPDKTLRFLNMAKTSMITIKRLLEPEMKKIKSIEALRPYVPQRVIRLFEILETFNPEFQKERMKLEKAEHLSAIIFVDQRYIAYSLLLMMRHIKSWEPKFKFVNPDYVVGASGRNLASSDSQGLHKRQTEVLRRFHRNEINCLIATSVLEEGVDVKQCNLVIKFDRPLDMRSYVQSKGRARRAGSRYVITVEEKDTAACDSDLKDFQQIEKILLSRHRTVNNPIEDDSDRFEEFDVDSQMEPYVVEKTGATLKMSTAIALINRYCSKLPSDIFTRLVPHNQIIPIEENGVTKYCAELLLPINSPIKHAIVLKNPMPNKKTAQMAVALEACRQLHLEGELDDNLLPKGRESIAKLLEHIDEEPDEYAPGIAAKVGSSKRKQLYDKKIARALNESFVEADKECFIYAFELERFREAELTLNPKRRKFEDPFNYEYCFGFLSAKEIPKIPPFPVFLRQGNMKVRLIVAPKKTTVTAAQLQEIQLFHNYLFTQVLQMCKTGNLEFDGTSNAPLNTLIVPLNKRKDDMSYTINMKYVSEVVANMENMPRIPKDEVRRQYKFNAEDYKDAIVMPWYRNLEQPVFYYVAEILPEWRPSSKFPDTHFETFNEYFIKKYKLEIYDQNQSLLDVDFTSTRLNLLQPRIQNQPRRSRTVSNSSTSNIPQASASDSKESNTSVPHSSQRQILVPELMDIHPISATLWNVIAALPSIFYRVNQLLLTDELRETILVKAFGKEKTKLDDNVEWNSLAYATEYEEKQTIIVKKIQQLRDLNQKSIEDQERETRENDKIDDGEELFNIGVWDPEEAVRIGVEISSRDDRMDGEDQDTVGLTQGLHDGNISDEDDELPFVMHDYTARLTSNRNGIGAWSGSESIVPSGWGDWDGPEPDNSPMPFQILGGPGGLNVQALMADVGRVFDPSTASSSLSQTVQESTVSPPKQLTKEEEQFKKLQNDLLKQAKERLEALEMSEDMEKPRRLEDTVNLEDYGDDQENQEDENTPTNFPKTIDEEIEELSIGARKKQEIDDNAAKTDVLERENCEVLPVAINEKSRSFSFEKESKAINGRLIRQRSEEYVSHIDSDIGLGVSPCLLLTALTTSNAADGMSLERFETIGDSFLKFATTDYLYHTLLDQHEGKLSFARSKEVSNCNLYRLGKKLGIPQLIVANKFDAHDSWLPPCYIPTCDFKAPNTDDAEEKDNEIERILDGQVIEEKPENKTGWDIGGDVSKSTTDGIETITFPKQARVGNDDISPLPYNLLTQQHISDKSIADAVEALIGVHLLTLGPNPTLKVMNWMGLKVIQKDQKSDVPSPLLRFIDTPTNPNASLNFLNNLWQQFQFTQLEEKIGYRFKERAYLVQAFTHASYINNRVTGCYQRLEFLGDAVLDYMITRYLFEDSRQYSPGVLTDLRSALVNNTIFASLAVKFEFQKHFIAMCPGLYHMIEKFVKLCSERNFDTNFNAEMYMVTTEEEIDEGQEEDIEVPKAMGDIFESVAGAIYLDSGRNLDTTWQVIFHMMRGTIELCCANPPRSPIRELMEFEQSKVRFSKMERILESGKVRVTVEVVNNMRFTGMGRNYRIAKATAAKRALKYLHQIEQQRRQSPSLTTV
DCR-1;DRH-1;RDE-4, sequence (chain, as listed by the source ||, chain 2 of 3): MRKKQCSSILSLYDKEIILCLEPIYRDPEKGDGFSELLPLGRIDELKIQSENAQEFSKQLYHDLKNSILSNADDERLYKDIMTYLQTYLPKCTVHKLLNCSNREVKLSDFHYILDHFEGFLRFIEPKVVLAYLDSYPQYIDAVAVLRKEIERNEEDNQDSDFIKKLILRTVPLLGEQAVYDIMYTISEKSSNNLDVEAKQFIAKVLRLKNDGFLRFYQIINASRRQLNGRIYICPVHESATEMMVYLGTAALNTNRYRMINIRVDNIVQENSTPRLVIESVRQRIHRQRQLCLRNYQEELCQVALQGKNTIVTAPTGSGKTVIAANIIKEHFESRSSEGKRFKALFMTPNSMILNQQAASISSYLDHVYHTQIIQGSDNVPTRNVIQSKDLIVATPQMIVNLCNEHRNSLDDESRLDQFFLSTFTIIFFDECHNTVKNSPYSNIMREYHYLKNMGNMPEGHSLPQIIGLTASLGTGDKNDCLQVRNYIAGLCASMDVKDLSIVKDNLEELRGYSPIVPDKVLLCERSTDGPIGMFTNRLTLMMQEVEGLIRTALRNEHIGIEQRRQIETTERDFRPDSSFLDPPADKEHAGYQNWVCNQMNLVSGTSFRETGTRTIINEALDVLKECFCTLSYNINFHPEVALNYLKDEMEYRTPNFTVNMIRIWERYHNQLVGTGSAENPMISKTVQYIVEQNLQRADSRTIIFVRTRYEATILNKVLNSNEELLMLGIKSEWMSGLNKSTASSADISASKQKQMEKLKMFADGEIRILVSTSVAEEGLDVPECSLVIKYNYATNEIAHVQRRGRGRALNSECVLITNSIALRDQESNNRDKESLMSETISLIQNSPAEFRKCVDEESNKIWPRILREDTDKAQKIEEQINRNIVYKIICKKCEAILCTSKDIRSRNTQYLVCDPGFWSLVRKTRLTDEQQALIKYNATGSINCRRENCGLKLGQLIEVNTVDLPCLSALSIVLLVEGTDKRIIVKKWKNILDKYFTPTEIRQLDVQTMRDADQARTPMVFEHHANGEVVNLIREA
DCR-1;DRH-1;RDE-4, sequence (chain, as listed by the source ||, chain 3 of 3): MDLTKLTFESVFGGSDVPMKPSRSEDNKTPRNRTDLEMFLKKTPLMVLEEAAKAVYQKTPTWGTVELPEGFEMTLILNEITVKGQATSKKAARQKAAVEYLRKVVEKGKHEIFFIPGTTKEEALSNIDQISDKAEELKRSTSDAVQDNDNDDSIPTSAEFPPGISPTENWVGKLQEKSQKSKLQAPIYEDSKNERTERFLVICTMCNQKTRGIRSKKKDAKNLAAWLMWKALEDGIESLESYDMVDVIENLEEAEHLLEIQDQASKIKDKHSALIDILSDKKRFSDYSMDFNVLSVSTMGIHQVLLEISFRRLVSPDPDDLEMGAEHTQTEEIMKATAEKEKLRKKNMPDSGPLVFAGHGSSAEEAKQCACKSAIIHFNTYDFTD

B1: 3'ovr 106-dsRNA (dsRNA)
RNA 1: GGCAAUGAAAGACGGUGAGCUGGUGAUAUGGGAUAGUGUUCACCCUUGUUACACCGUUUUCCAUGAGCAAACUGAAACGUUUUCAUCGCUCUGGAGUGAAUACCAA
RNA 2: GGUAUUCACUCCAGAGCGAUGAAAACGUUUCAGUUUGCUCAUGGAAAACGGUGUAACAAGGGUGAACACUAUCCCAUAUCACCAGCUCACCGUCUUUCAUUGCCAA
B1: binds.
